Measured values reported in publication doi:10.1101/2022.02.05.479199 (bioRxiv, 2022).

Target: Replication protein A (Saccharomyces cerevisiae RPA) (S. cerevisiae, UniProt P22336;P26754;P26755)
Test: AUC

Sequence of Replication protein A (Saccharomyces cerevisiae RPA) (P22336 whole entry, chain 1 of 3): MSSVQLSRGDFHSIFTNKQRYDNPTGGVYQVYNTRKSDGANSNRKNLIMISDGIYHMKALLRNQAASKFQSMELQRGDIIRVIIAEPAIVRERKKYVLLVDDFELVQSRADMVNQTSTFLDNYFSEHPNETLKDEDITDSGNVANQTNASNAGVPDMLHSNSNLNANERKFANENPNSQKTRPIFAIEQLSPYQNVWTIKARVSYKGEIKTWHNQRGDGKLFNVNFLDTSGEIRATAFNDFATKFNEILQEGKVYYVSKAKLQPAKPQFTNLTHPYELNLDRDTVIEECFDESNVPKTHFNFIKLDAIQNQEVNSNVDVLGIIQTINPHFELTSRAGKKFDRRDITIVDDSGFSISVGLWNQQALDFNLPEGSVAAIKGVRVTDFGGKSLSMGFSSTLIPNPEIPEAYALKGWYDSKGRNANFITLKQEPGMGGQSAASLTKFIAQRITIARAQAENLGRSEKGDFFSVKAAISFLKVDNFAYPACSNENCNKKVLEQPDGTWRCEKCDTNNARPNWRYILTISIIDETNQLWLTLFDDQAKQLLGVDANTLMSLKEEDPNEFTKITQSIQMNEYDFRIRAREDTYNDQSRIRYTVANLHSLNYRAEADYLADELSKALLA
Sequence of Replication protein A (Saccharomyces cerevisiae RPA) (P26754 whole entry, chain 2 of 3): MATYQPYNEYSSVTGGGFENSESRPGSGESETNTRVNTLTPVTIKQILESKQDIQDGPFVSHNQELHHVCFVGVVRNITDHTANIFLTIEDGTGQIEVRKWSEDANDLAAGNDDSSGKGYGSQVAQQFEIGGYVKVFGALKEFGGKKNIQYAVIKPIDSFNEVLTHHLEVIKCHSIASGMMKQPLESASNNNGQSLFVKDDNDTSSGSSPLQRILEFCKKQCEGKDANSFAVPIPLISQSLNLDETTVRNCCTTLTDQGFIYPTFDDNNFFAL
Sequence of Replication protein A (Saccharomyces cerevisiae RPA) (P26755 whole entry, chain 3 of 3): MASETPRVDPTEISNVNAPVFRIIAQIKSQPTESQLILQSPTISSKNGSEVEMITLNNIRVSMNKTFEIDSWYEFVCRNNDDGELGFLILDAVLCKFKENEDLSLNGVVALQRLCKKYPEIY

binding result: binds
B1: Rtt105^Cy5 (natural protein)
chain: MYSNHNLNSDDCSFDWNEEKAAELQRTGVSFDRSLTPQSLRTSTRRLSEENKQQSGTMHIDTSPSVVSDIISSRRDRSQDFFGPHSSSPIAPSERQRADQRSRLESMRLTRRRDKMTKVRGGLEKMEEMIMQGEHLREMQRLKQEAQKNALPSDMAEYMEWQNNEDLEDDELLAFIEKQETYKNELEHFLNNANKNVYENNSYPNSHT
modifications: Cy5 (maleimide) on Cys-12
